{"source": "paper doi:10.1101/2023.08.11.553045", "about": "(bioRxiv, 2023)", "molecules": {"B1": {"name": "STING cytosolic domain (hSTING CTD lacking CTT3, aa 137-366) (domain or fragment)", "chain": "KGLAPAEISAVCEKGNFNVAHGLAWSYYIGYLRLILPELQARIRTYNQHYNNLLRGAVSQRLYILLPLDCGVPDNLSMADPNIRFLDKLPQQTGDHAGIKDRVYSNSIYELLENGQRAGTCVLEYATPLQTLFAMSQYSQAGFSREDRLEQAKLFCRTLEDILADAPESQNNCRLIAYQEPADDSSFSLSQEVLRHLRQEEKEEVTVGSLKTSAVPSTSTMSQEPELLIS"}}, "key": {"[1]": {"biological_target": "STING cytosolic domain (hSTING CTD lacking CTT3, aa 137-366) (human) (UniProt Q86WV6)", "assay": "MST"}, "[2]": {"biological_target": "B1", "assay": "MST"}, "[3]": {"biological_target": "B1", "assay": "NMR titration"}, "[4]": {"biological_target": "STING-R284S CTD (human, UniProt Q86WV6 137-366, R284S)", "assay": "NMR titration"}, "[5]": {"biological_target": "the molecule itself", "assay": "SEC"}}, "note": "Where no end group is shown, it is not given here."}
{"molecule": "CTT8 peptide (MFEKPLPL)", "values": [{"measurement": "fold enhancement of affinity over CTT7", "setting": "[1]", "value": 2.7, "unit": "fold"}]}
{"molecule": "MEKPLPL", "note": "[CTT7 peptide (unlabelled)]", "values": [{"measurement": "Kd", "setting": "[2]", "value": 10.7, "unit": "µM"}]}
{"molecule": "MEKPLPL (also: 15N isotopically labelled amino acids)", "note": "[15N-labelled CTT7]", "values": [{"measurement": "binding result", "setting": "[3]", "value": "binds"}, {"measurement": "binding result", "setting": "[4]", "value": "binds"}]}
{"molecule": "B1", "values": [{"measurement": "binding result", "setting": "[5]", "value": "binds"}]}
